Source: article PMC5839545
Values belong to the substance of their own block, whether it stands above or below them.

Columns and labels:
[1] = target: mCherry-(s)-CENP-N (human) (UniProt Q96H22); assay: dual color fluorescence cross-correlation spectroscopy (DC-FCCS); EGFP and mCherry fusion proteins co-expressed in living interphase HEp-2 or U2OS cells; spots in the nucleoplasm free of kinetochores, focal volume bleached before; 37°C; 488 and 561 nm; corrected values are the measured ones times about two
[2] = target: Spc24/Spc25 137-197+129-224 (Homo sapiens) (UniProt Q8NBT2); details: cited from earlier work
[3] = target: mCherry-(s)-CENP-I (human) (UniProt Q92674); assay: dual color fluorescence cross-correlation spectroscopy (DC-FCCS); EGFP and mCherry fusion proteins co-expressed in living interphase HEp-2 or U2OS cells; spots in the nucleoplasm free of kinetochores, focal volume bleached before; 37°C; 488 and 561 nm; corrected values are the measured ones times about two
[4] = target: mCherry-(s)-CENP-K (human) (UniProt Q9BS16); assay: as above
[5] = target: CENP-I-(s)-mCherry (human) (UniProt Q92674); assay: as above
Chain of CENP-I-(s)-mCherry (human) (Q92674 whole entry): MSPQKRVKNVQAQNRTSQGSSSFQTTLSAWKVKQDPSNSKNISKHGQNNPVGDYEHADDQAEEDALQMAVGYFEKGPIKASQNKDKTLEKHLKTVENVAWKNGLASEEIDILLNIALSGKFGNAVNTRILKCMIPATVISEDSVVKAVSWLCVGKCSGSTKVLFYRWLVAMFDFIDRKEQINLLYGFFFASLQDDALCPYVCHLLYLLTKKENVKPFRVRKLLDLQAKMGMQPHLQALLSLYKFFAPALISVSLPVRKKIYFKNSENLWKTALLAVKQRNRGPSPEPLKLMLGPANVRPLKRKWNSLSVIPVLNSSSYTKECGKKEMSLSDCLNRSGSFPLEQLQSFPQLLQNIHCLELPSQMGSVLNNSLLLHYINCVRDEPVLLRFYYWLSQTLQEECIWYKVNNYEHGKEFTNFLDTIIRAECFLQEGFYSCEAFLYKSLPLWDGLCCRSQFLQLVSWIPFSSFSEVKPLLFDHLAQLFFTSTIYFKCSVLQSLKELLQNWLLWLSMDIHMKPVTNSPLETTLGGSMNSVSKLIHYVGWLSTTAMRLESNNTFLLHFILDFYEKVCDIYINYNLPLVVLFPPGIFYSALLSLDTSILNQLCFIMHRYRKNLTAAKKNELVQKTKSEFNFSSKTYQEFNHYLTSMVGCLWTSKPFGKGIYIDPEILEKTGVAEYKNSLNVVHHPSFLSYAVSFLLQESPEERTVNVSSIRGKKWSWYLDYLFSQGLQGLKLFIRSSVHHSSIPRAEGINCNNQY

Chain of EGFP-(l)-CENP-M (Q9NSP4 whole entry): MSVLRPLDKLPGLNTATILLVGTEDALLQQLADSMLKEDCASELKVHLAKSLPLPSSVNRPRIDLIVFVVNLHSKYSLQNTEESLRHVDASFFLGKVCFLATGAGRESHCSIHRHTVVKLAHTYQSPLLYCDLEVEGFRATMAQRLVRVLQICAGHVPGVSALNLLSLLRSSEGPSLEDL
Chain of mCherry-(s)-CENP-K (human) (Q9BS16 whole entry): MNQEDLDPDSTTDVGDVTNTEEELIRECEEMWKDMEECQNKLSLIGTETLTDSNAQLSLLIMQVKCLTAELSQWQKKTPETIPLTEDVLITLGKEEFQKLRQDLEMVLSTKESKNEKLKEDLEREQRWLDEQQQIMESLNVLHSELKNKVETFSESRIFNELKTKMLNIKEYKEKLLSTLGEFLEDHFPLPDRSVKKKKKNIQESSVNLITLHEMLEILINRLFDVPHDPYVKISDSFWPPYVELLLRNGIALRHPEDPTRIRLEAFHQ
Chain of mCherry-(s)-CENP-I (human) (Q92674 whole entry, the tested form may be a part): as the sequence (Q92674 whole entry) above
Chain of mCherry-(s)-CENP-N (human) (Q96H22 whole entry, the tested form may be a part): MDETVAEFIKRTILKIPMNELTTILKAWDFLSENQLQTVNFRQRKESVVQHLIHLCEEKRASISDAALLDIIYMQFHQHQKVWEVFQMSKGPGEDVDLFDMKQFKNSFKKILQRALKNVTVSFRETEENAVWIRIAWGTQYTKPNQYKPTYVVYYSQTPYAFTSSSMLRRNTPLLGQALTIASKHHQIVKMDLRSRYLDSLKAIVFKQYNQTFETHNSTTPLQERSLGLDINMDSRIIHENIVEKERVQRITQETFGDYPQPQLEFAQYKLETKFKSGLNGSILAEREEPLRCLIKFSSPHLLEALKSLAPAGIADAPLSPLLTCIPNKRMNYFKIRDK
Chain of EGFP-(l)-CENP-L (Q8N0S6 whole entry): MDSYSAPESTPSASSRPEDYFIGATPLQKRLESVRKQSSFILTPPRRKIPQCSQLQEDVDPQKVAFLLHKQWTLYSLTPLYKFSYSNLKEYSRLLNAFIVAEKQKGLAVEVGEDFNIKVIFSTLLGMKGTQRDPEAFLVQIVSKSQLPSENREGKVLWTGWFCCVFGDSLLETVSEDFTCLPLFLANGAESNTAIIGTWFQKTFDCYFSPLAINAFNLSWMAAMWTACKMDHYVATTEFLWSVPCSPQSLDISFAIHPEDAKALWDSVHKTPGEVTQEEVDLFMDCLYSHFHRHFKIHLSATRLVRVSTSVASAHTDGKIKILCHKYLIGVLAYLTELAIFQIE
Chain of Spc24/Spc25 137-197+129-224 (Homo sapiens) (Q8NBT2 whole entry, chain 1 of 2, the tested form may be a part): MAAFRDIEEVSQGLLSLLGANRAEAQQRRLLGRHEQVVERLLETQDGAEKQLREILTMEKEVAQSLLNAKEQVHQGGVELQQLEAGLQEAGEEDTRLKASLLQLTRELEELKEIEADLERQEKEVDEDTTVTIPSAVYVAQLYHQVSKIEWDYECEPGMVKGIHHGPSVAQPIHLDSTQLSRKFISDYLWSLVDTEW
Chain of Spc24/Spc25 137-197+129-224 (Homo sapiens) (Q9HBM1 whole entry, chain 2 of 2, further chain, the tested form may be a part): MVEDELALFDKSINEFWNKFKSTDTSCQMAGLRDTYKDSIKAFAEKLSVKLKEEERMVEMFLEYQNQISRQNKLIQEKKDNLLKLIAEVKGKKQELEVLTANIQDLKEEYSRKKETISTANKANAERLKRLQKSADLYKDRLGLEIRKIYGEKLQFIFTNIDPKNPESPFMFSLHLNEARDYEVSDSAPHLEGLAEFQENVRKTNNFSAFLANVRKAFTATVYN
Chain of CENP-T 76-106 (Q96BT3 76-106): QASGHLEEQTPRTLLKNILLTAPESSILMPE

Substance: CENP-K-(s)-EGFP (from UniProt Q9BS16 1-269) (natural protein)
cross-correlation, measured (%) [1]: 26%

Substance: CENP-T 76-106 (from UniProt Q96BT3)
Kd [2]: 0.645 µM

Substance: EGFP-(l)-CENP-M (from UniProt Q9NSP4 1-180) (natural protein)
cross-correlation, measured (%) [3]: 24%
co-migration in one cell (%) [4]: 49%
cross-correlation, corrected (%) [4]: 56 to 92%
cross-correlation, measured (%) [4]: 37%

Substance: EGFP-(s)-CENP-K (from UniProt Q9BS16 1-269) (natural protein)
cross-correlation, measured (%) [3]: 20%

Second part, the substance after the results:

cross-correlation, measured (%) [1]: 23%
Substance: EGFP-(l)-CENP-L (from UniProt Q8N0S6 1-344) (natural protein; other documents disagree on this pair)

cross-correlation, measured (%) [5]: 22%
Substance: EGFP-(s)-CENP-H (from UniProt Q9H3R5 1-247) (natural protein)
